# Patent US20260042834A1, “ANTI-CORTICOTROPIN-RELEASING HORMONE ANTIBODIES AND POLYCYSTIC OVARY SYNDROME” (HBM ALPHA THERAPEUTICS, INC., priority 2022, published 2026)
# T1: human UCN1 (Homo sapiens, UniProt P55089)
# T1 sequence (P55089 83-122 limits assumed): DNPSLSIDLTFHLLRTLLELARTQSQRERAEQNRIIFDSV
# Assays:
# [1] = tested on: restraint-induced ACTH and corticosterone; assay: Wildtype mice restraint-stress model (ACTH and corticosterone); format: in vivo, mouse; details: mAb 5 mg/kg
# [2] = tested on: restraint-induced ACTH and corticosterone; assay: as above; format: in vivo, mouse
# Procedure: 8-10 week old wildtype female C57BL/6 mice were obtained from Charles River Laboratories. Mrap1 KO mice were obtained from Queen Mary University of London, UK. SSR125543A, a small molecule CRHR1 antagonist, was obtained from Axon Medchem (Cat #Axon 1799). Mouse Corticosterone (55-Corms-E01) and adrenocorticotropic hormone (ACTH) ELISA kits (21-ACTHU-E01) were obtained from ALPCO, USA. All procedures were carried out in accordance with the Guide for the Care and Use of Laboratory Animals of the National Institutes of Health. Protocols were approved by Charles River Laboratories Institutional Animal Care and Use Committee (IACUC).
# To determine the effect of nonpainful physical restraint upon stress responses, mice were restrained in 50 ml polypropylene ventilated tubes in which the tip was cut off with a razor blade to allow the mouse to breathe easily for 15-20 minutes. A mouse was directed to the open tube and crawled in. A piece of paper towel was put behind the mouse so that it could not back out, and the cap was screwed on. The mouse was placed back in its cage, ventral size down on the bedding. This stressor is not considered painful, as mice are confined to a limited space (in a ventilated restraint tube) but not in an unnatural physical position. The investigator was present in the room during the entire procedure. At the end of the procedure, the mouse was removed by the tail.
# On day 1, each mouse was injected intraperitoneally with 20 mg/kg of anti-CRH mAbs, hIgG1 or PBS (5 mice per group). On day 2 or 3, and 14 each mouse was subjected to physical restraint-stress described above for 15 or 20 min. Immediately after restraint-stress, 200 μl of blood was collected in EDTA tubes from the submandibular vein of each mouse. Plasma was separated using a refrigerated centrifuge (4° C. at 500×g for 10 min) and snap-frozen in dry ice for subsequent ACTH and corticosterone ELISA measurement.
# On day 1, one half of mice were injected IP with 20 mg/kg of anti-CRH Ab or hIgG1 (5 mice per group). On day 3, the other half of mice were injected IP with 30 mg/kg of SSR125543A or solvent (5 mice each group). Two hours later, four groups of mice were subjected to restraint-stress as described above for 20 min. Immediately after restraint-stress, 200 μl of blood was collected in EDTA tubes from the submandibular vein of each mouse in all four groups. Plasma was separated as described above and snap-frozen in dry ice for subsequent ACTH and corticosterone ELISA measurement. On day 4, SSR125543A or solvent-treated mice were subjected to a second round of restraint stress for 20 min and plasma was collected. Two weeks later, anti-CRH mAb- or hIgG1-treated mice were subjected to physical stress for 20 min followed by plasma collection.
# human UCN1 = target: T1, human UCN1; assay: Human UCN1 ELISA binding; details: in words
# Procedure: Streptavidin (Thermo, Cat: 21125) was diluted in PBS to a concentration of 2 μg/ml. 100 μl of diluted streptavidin was added per well to ELISA microplates, and the plates were incubated overnight at 4° C. Plates were blocked with ELISA blocking solution (containing 2% w/v BSA, 0.05% (v/v) Tween-20, pH 7.4 PBS buffer) at 37° C. for 1 hour, and then incubated with 0.5 μg/mL CRH (NT biotin), 0.5 μg/mL CRH (CT biotin), 1 μg/mL human UCN1 (NT biotin), or 1 μg/mL human UCN1 (CT biotin) for 1 hour at 37° C. Plates were then washed and incubated with diluted anti-CRH antibody (Ab) at 15 μg/ml (100 nM, 10 diluted, 8 points) for 1 hour at 37° C. Subsequently, plates were washed and incubated with HRP-conjugated goat anti-human IgG (H+L) antibody (Jackson, Cat: 109-035-088) at 37° C. for 1 hour. […] 100 μL of ELISA stopping solution (Solarbio, Cat #: C1058) was added to terminate the reaction, and the optical density at 450 nm (OD450 nm) was determined by an ELISA plate reader (Molecular Devices, Spectra max 384 plus).
# Streptavidin (Thermo, Cat: 21125) was diluted in PBS with a concentration of 2 μg/mL. […] 100 μL of ELISA stopping solution (Solarbio, Cat #: C1058) was then added to terminate the reaction, and the OD450 nm was determined by an ELISA plate reader (Molecular Devices, Spectra max 384 plus).
molecule,measurement,setting,value
"PR302334-24: humanized variant of Series 9 mAb PR302334; VH SEQ ID NO: 275, VL SEQ ID NO: 328 (antibody, V domains shown, PR302334-16 VH, PR302334-24 VH, PR302334-25 VH; PR302334-10 VL, PR302334-24 VL, PR302334-26 VL, PR302334-4 VL) VH: EVQLVESGGGLVKPGGSLRLSCAASGFTFSTYAMSWVRQAPGKGLEWVASIRSGGTTYYPDSVKGRFTISRDNAKNSLYLQMNSLRAEDTAVYYCTRGIDWGQGTTVTVSS VL: DIVMTQSPDSLAVSLGERATINCKASQSVNNDVAWYQQKPGQPPRLLIYYASNRYTGVPDRFSGSGSGTDFTLTISSLQAEDLAVYFCQQDYSSWTFGGGTKVEIK",efficacy in reducing plasma ACTH and corticosterone levels versus SSR125543A at 30 mg/kg,[1],more efficacious
same,efficacy versus SSR125543A at inhibiting restraint induced ACTH and corticosterone,[2]; doses not given,superior efficacy
same,duration of the effects,[2]; restraint,at least 17 days
same,inhibition of ACTH and corticosterone versus SSR125543A,[2]; restraint,more complete inhibition
same,efficacy in reducing plasma ACTH and corticosterone levels versus SSR125543A at 30 mg/kg,"[2]; restraint, mAb 20 mg/kg",more efficacious
"PR302334-26: humanized variant of Series 9 mAb PR302334; VH SEQ ID NO: 277, VL SEQ ID NO: 328 (antibody, V domains shown, PR302334-18 VH, PR302334-26 VH, PR302334-27 VH; PR302334-10 VL, PR302334-24 VL, PR302334-26 VL, PR302334-4 VL) VH: EVQLVESGGGLVQPGGSLRLSCAASGFTFSTYAMSWVRQAPGKGLEWVASIRSGGTTYYPDSVKGRFTISRDNSKNSLYLQMNSLRAEDTAVYYCTRGIDWGQGTTVTVSS VL: DIVMTQSPDSLAVSLGERATINCKASQSVNNDVAWYQQKPGQPPRLLIYYASNRYTGVPDRFSGSGSGTDFTLTISSLQAEDLAVYFCQQDYSSWTFGGGTKVEIK",binding to human UCN1 peptides in ELISA,human UCN1,"except for PR302334-26, bound to human UCN1"
